Experimental data reported in PMC3264700 (Journal of Molecular and Cellular Cardiology, 2011).
Several values for one entry are separate records, joined by “and”; a condition that tells them apart may be missing. Identical values can stand only once. Like-named read-outs stand apart in the source and are kept apart here.

B1: adiponectin secreted by wild type mouse aortic VSMC (natural protein, UniProt Q60994 18-247, looked up)
chain: EDDVTTTEELAPALVPPPKGTCAGWMAGIPGHPGHNGTPGRDGRDGTPGEKGEKGDAGLLGPKGETGDVGMTGAEGPRGFPGTPGRKGEPGEAAYVYRSAFSVGLETRVTVPNVPIRFTKIFYNQQNHYDGSTGKFYCNIPGLYYFSYHITVYMKDVKVSLFKKDKAVLFTYDQYQEKNVDQASGSVLLHLEVGDQVWLQVYGDGDHNGLYADNVNDSTFTGFLLYHDTN
B2: adiponectin, endogenous in human coronary artery VSMC (hCASMC) (natural protein, human (endogenous in hCASMC), UniProt Q15848 19-244, looked up)
chain: ETTTQGPGVLLPLPKGACTGWMAGIPGHPGHNGAPGRDGRDGTPGEKGEKGDPGLIGPKGDIGETGVPGAEGPRGFPGIQGRKGEPGEGAYVYRSAFSVGLETYVTIPNMPIRFTKIFYNQQNHYDGSTGKFHCNIPGLYYFAYHITVYMKDVKVSLFKKDKAMLFTYDQYQENNVDQASGSVLLHLEVGDQVWLQVYGEGERNGLYADNDNDSTFTGFLLYHDTN

What was measured:
[1] = biological target: the molecule itself; test: native gel or EMSA
[2] = biological target: the molecule itself; test: native gel or EMSA; remark: listed apart in the source

Protein | stoichiometry N [1] | stoichiometry N [2]
B1 | 3 | –
B2 | – | 2 and 3 and 6
